Experimental findings from patent US20110256557A1, “IDENTIFYING PARATHYROID HORMONE AGONISTS AND ANTAGONISTS” (DISCOVERYBIOMED, INC., priority 2008, published 2011) are described below.

The target of the experiment is T1, PTH1R on cell surface (Homo sapiens, UniProt Q03431).
T1 construct: HA; expressed in transfected cells; LRP6N-IgG conditioned medium came from transfected HEK 293 cells
T1 sequence (Q03431 27-593): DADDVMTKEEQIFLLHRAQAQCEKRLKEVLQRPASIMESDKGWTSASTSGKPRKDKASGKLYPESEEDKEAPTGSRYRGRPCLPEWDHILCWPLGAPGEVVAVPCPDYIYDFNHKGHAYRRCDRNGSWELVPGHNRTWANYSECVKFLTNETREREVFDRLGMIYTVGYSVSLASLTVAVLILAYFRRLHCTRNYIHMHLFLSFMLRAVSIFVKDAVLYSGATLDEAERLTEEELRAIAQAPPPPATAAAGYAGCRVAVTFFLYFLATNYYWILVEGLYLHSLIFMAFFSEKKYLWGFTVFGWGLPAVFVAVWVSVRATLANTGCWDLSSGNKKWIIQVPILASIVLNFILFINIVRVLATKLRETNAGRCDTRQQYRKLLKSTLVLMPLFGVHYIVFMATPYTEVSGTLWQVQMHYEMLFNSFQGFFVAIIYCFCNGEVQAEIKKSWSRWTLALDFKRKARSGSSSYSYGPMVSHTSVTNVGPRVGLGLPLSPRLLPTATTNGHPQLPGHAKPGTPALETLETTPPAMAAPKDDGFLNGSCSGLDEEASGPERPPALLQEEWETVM
Nature of the experiment: Cell surface binding by immunofluorescence colocalization assay. The experiment is classed as cell-based. How it is done:
Cells were transfected with HA-PTH1R and treated with IgG conditioned medium or LRP6N-IgG conditioned medium for 1 hour followed by PTH (1-84) treatment for 15 minutes. Cells were then washed with phosphate buffered saline (PBS), fixed with 4% paraformaldehyde, permeabilized with 0.1% Triton X-100, and incubated with primary antibody followed by incubation with chromophore-conjugated secondary antibody. Digital pictures were taken using an Olympus, IX TRINOC camera fitted to an Olympus, IX70 Inverted Research Microscope (Olympus; Center Valley, Pa.) with objective lenses of Hoffman Modulation Contrast®, HMC 10 LWD PL FL, 0.3NA ∝/1, at room temperature, and processed using MagnaFire® SP imaging software. A […] TCs SP2 system was used for confocal imaging. The ratios of the number of cells showing in green to the number of cells showing in red were calculated. For each treatment, 100 cells on each of three different slides were analyzed.

B1: LRP6N-IgG: LRP6 extracellular domain fused with IgG (protein)
chain: APLLLYANRRDLRLVDATNGKENATIVVGGLEDAAAVDFVFSHGLIYWSDVSEEAIKRTEFNKTESVQNVVVSGLLSPDGLACDWLGEKLYWTDSETNRIEVSNLDGSLRKVLFWQELDQPRAIALDPSSGFMYWTDWGEVPKIERAGMDGSSRFIIINSEIYWPNGLTLDYEEQKLYWADAKLNFIHKSNLDGTNRQAVVKGSLPHPFALTLFEDILYWTDWSTHSILACNKYTGEGLREIHSDIFSPMDIHAFSQQRQPNATNPCGIDNGGCSHLCLMSPVKPFYQCACPTGVKLLENGKTCKDGATELLLLARRTDLRRISLDTPDFTDIVLQLEDIRHAIAIDYDPVEGYIYWTDDEVRAIRRSFIDGSGSQFVVTAQIAHPDGIAVDWVARNLYWTDTGTDRIEVTRLNGTMRKILISEDLEEPRAIVLDPMVGYMYWTDWGEIPKIERAALDGSDRVVLVNTSLGWPNGLALDYDEGKIYWGDAKTDKIEVMNTDGTGRRVLVEDKIPHIFGFTLLGDYVYWTDWQRRSIERVHKRSAEREVIIDQLPDLMGLKATNVHRVIGSNPCAEENGGCSHLCLYRPQGLRCACPIGFELISDMKTCIVPEAFLLFSRRADIRRISLETNNNNVAIPLTGVKEASALDFDVTDNRIYWTDISLKTISRAFMNGSALEHVVEFGLDYPEGMAVDWLGKNLYWADTGTNRIEVSKLDGQHRQVLVWKDLDSPRALALDPAEGFMYWTEWGGKPKIDRAAMDGSERTTLVPNVGRANGLTIDYAKRRLYWTDLDTNLIESSNMLGLNREVIADDLPHPFGLTQYQDYIYWTDWSRRSIERANKTSGQNRTIIQGHLDYVMDILVFHSSRQSGWNECASSNGHCSHLCLAVPVGGFVCGCPAHYSLNADNRTCSAPTTFLLFSQKSAINRMVIDEQQSPDIILPIHSLRNVRAIDYDPLDKQLYWIDSRQNMIRKAQEDGSQGFTVVVSSVPSQNLEIQPYDLSIDIYSRYIYWTCEATNVINVTRLDGRSVGVVLKGEQDRPRAVVVNPEKGYMYFTNLQERSPKIERAALDGTEREVLFFSGLSKPIALALDSRLGKLFWADSDLRRIESSDLSGANRIVLEDSNILQPVGLTVFENWLYWIDKQQQMIEKIDMTGREGRTKVQARIAQLSDIHAVKELNLQEYRQHPCAQDNGGCSHICLVKGDGTTRCSCPMHLVLLQDELSCGEPPTCSPQQFTCFTGEIDCIPVAWRCDGFTECEDHSDELNCPVCSESQFQCASGQCIDGALRCNGDANCQDKSDEKNCEVLCLIDQFRCANGQCIGKHKKCDHNVDCSDKSDELDCYPTEEPAPQA
modifications: left off: a dimerising Fc or GST
Consider B1, for which the “immuno-colocalization with PTH1R on cell surface” value was found to be 82.3% (with addition of PTH ligand (PTH (1-84), 15 minutes)) and 22.8% (without PTH ligand, cells transfected with HA-PTH1R).
